The record followed here is the nanobody polyreactivity screen of Harvey et al. (2022).

The data set is described as follows: yeast display, Sf9 membrane polyspecificity reagent, FACS + sequencing; frameworks hold sequencing errors. In outline: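 A synthetic nanobody library was expressed on Saccharomyces cerevisiae BJ5465 by galactose induction for 36–48 hours. The library was stained for 1 hour at 4 °C with 10% biotinylated, detergent-solubilized Sf9 membrane reagent and enriched with streptavidin microbeads before FACS. Low and high (top ~1%) gates were set on anti-HA fluorescence for expression and streptavidin fluorescence for reagent binding, and each polyreactivity label reflects the gate of origin.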
In the case of “QVQLEESGGGLVQAGGSLRLSCAASGFIFAQNAMGWYRQAPGKERELVARIRVSGTRTYYADSVKGRFTISRDNAKNTVYLQMNSLKQEDTAVYYCAAVPYTYDFGYKRFYWGQGTQVTVSS”, the “polyreactivity (PSR sort gate)” value is listed as “high polyreactivity”.

With “QVQLEESGGGLVQAGGSLRLSCAASGFIFDYYMGWYIQAPGKERELVARISYTGGSTYYADCVKGRFTISRDNAKNTVYLQMNSLKPEDTAVYYCATRGAEAERFASYDFDYWGQGTQVTVSS”, the “polyreactivity (PSR sort gate)” value is “low polyreactivity”.

Take “QVQLEESGGGLVQAGGSLRLSCAASGFIFSRNAMGWYRQAPGKERELVAAITGSGARTYYADSVKGRFTISRDNAKNTVYLQMNSLKPEDTAVYYCNADARGGIYFRGVKFDYWGLGTQVTVSS”: the “polyreactivity (PSR sort gate)” value is “high polyreactivity”.

For “QVQLEESGGGLVQAGGSLRLSCAASGFIFYRYAMGWYRQAPGKERELVAALTTGGDRTYYADSVKGRFTISRDNAKNTVYLQMNSLKPEDPAVYYCATLWSYYYATIYLDGYDYWGQGTQVTVSS”, the “polyreactivity (PSR sort gate)” value is recorded as “high polyreactivity”.

Turning to “QVQLEESGGGLVQAGGSLRLSCAASGFISFAYAMGWYIQAPGKERELVAGISRSGDSTYYADSVKGRFTISRDNAKNTVYLQMNSLKPEDTAVYYCAARQVDWFDYTTAQVGSYKVNYWGQGTQVTVSS”, the “polyreactivity (PSR sort gate)” value is given as “low polyreactivity”.

As to “QVQLEESGGGLVQAGGSLRLSCAASGFTFARNGMGWYRQAPVKESEFVAAITRSGGRTYYADSVKGRFTISRDNAKNTVYLQMNSLKPEDTAVYYCAAATSYGKSEYDYWGQGTQVTVSS”, the “polyreactivity (PSR sort gate)” value is on record as “high polyreactivity”.

For the sequence “QVQLEESGGGLVQAGGSLRLSCAASGFTFDGYAMGWYRPAPGKERELVAAITSSGGSTYYADSVKGRFTISRDNTKNTVYLQMNSLKPEDTAVYYCNAVYYYGYYYYWTEFNYWGQGTQVTVSS”, the “polyreactivity (PSR sort gate)” value is “high polyreactivity”.

Turning to “QVQLEESGGGLVQAGGSLRLSCAASGFTFRVYAMGWYRQAPGKERELVAAISSGGSTNYADSVKGRFTISRDNAKNTVYLQMNSLKPEDTAVYYCAARQRYYSERPQYSGLYYWGQGTQVTVSS”, the “polyreactivity (PSR sort gate)” value is reported as “high polyreactivity”.

As for “QVQLEESGGGLVQAGGSLRLSCAASGFTFTDYALGWYRQAPGTERELVAVITYDSTYYADPVKGRFTISRDNAKNTVYLQMNSLNPEDTAVYFCAADSYDWGDFDYWGQGTQVTVSS”, the “polyreactivity (PSR sort gate)” value is given as “low polyreactivity”.

On to “QVQLEESGGGLVQAGGSLRLSCAASGFTFTYYAMGWYRQAPGKERELVASISYSGGSTYYADSVKGRFTISRDNAKNTVYLQMNSLKPEDTAVYYGAARTRHVHYGYWGQVTQVTVSS”, for which the “polyreactivity (PSR sort gate)” value was “high polyreactivity”.

For the sequence “QVQLEESGGGLVQAGGSLRLSCAASGFTFYRYAMGWYRQAPGKERELVAAITWSGGSTYYADSVKGRFTISRDNAKNTVYLQMNSLKPEDTGVYYCNAAAYYPTNYGGYLFEYWGQGTQVTVSS”, the “polyreactivity (PSR sort gate)” value is reported as “low polyreactivity”.

Consider “QVQLEESGGGLVQAGGSLRLSCAASGFTLPLYAMGWYIQAPGKERELVAAISSGGGRTYYADSVKGRFTISPDYEKNSVYLQMNSLKPEDTAVYYCNVDRWWLGRYKFYYWGQGTQVTVSS”, for which the “polyreactivity (PSR sort gate)” value is reported as “high polyreactivity”.

Take “QVQLEESGGGLVQAGGSLRLSCAASGGTLRYYVMGSYRQAPGKERELVAAISWSGDSTYYADSVKGRFTISRDNAKNTVYLQMNSLKPEDTAVYYCAATYYLTYYYGQANHGYDYWGQGTQVTVSS”: the “polyreactivity (PSR sort gate)” value is “low polyreactivity”.

For “QVQLEESGGGLVQAGGSLRLSCAASGIFTRYAMGWYRQAPGKERELVAAISRGGGSTYYADTVKGRFTISRDNAKNTVYLLMNSLKPEDTAVYYCYTYKRPRSPGPKFYYWGQGTQVTVSS”, the “polyreactivity (PSR sort gate)” value was “high polyreactivity”.

For “QVQLEESGGGLVQAGGSLRLSCAASGIIFGTNAMGWYRQAPGKERELVATISWRGGSTYYADSVKGRFTISRDNAKNTVYLQMTSLKPEDTAVYYCAAGASGQRAYRRYYWGQGTQVTVSS”, the “polyreactivity (PSR sort gate)” value is “high polyreactivity”.

Regarding “QVQLEESGGGLVQAGGSLRLSCAASGIIFSGNAMGWYRQAPGKERELVAANTRSGGTTYYADSVKGRFTISRDNAKNTVYLQMNSLKPEDTAVYYCAASYPLYVFYVSGYDYWGQGTQVTVSS”, the “polyreactivity (PSR sort gate)” value was “low polyreactivity”.

In the case of “QVQLEESGGGLVQAGGSLRLSCAASGIIFSGYAMGWYRQAPGKERELVASIRSGSNTYYADSVKGRFTISRDNAKNTVYLQMISLKPEDTAVYYCAARVVPATFRFIRYPHPYYYWGQGTQVTVSS”, the “polyreactivity (PSR sort gate)” value is “low polyreactivity”.

For “QVQLEESGGGLVQAGGSLRLSCAASGIIFSIYAMGLYRKAPGKERELVAAITYSGGRTYYADSVKGRFTISRDNAKNTVYLQMNSLKPEDTAVYYCAAVVYGEYYWGQGTQVTVSS”, the “polyreactivity (PSR sort gate)” value was “high polyreactivity”.

Take “QVQLEESGGGLVQAGGSLRLSCAASGIISTVYAMGWYRQAPGKERELVAAISCSGGSTYYADSLKGSFTISRDNENNTVYLQMNSLKPEDTAVYYCSKGYQYQGNSYGYWGQGTQVTVSS”: the “polyreactivity (PSR sort gate)” value is recorded as “low polyreactivity”.

On to “QVQLEESGGGLVQAGGSLRLSCAASGINFQGNARGWYRQAPGKERELVASITAGGDTTYYADSVKGRFTISRDNAKNTFYLQLNSVKPEDSEVYDCAVYSWLDADDSYPDSILVDYWGQGTQVTVSS”, for which the “polyreactivity (PSR sort gate)” value is given as “low polyreactivity”.

For “QVQLEESGGGLVQAGGSLRLSCAASGITIYYYAMGWYRQAPGKERELVAAISRSAGSTSYADSVKGRFTISRDNAKNTVYLQMNSLKTEDNAVYYCAAQGWHLDSQWQLYNYYYWGQGTQVTVSS”, the “polyreactivity (PSR sort gate)” value is reported as “high polyreactivity”.

As to “QVQLEESGGGLVQAGGSLRLSCAASGLIFARNAMGWYRQAPGKERELVAAISKRGGSTFYADSVKGRFTISRDNAKNTVYLQMKSLNPEDTAVYYCNARSSETWHGDYWGQGTQVTVSS”, the “polyreactivity (PSR sort gate)” value is “high polyreactivity”.

Regarding “QVQLEESGGGLVQAGGSLRLSCAASGLIFQVYALGWYRQAPGKERELVASISWNGGSTYYADSVKGRFTISRDNAKNTVYLQMNSLKPEDTAVYYCNKYPVSLWYYSKDYTYDYWGQGTQVTVSS”, the “polyreactivity (PSR sort gate)” value is “low polyreactivity”.

For the sequence “QVQLEESGGGLVQAGGSLRLSCAASGLILRTYGMGWYRQAPGKERELVAVISSGGSTYYADSVKGRFTISRDNAKNTVYLQMNSLKPEDTAVYYCAVRSSWYEGDYWGQGTQVTVSS”, the “polyreactivity (PSR sort gate)” value is reported as “low polyreactivity”.

For “QVQLEESGGGLVQAGGSLRLSCAASGLTFGDYTMGWYRQAPWKERELVAAITSRGGRTYYADSVKGRFTISRDNAKNTVYLQMNSLTPEDTAVYYCAADDLRIKRVGFDYWGQGTQVTVSS”, the “polyreactivity (PSR sort gate)” value was “high polyreactivity”.

Consider “QVQLEESGGGLVQAGGSLRLSCAASGLTFRSYAMGWYRQAPGTEREFVAAITGSGDTTYYAVSVKGRFTISRDNALNTVYLQMNSLNPEETAGYYCNADRDYLWITLYEYWGQGTQLTVSS”, for which the “polyreactivity (PSR sort gate)” value was “high polyreactivity”.

As to “QVQLEESGGGLVQAGGSLRLSCAASGLTFVYNAMGWYRQAPGKERELVAAISRVGSTNYADSVKGRFTISRDNAKNTVYLQMNSLKPEDTAVYYCNAERSRRYSGWVNYAPLNYWGQGTQVTVSS”, the “polyreactivity (PSR sort gate)” value is reported as “low polyreactivity”.

Consider “QVQLEESGGGLVQAGGSLRLSCAASGLTLGRYAMGWYRPAPGKERELVAVITGGGSTNYADSVKGRFTISRDNAKNTVYLQMNSLKPEDTAVYYCAVRGGIFQTLSTWYRYYYWGQGTQVTVSS”, for which the “polyreactivity (PSR sort gate)” value is “high polyreactivity”.

Consider “QVQLEESGGGLVQAGGSLRLSCAASGRICAYYTMGWYRQAPGKERELVASITSGSSTNYADSVKGRFTISRDNAKNTVYLQMNSLKPEDTAVYYSAAPRGSYVRTRYRGYVVQSNYWGQGTQVTVSS”, for which the “polyreactivity (PSR sort gate)” value was “high polyreactivity”.

For “QVQLEESGGGLVQAGGSLRLSCAASGRIFGIYAMGWYRQAPGKERELVASITDGTITNYADSVKGRFTISRDNAKNTVYLQMNSLKPEDTAVYYCAAGTQAHAFVVRPIEMDYWGQGTQVTVSS”, the “polyreactivity (PSR sort gate)” value is reported as “low polyreactivity”.

For the sequence “QVQLEESGGGLVQAGGSLRLSCAASGRIFHKNAMGWYRQAPGKEREFVATISSRGGSTYYADSVKGRFTISRDNSKNTVYLQMNSLKPEDSAVYYCAAGWYRNDWGQRLHTYYYWGQGTQVTVSS”, the “polyreactivity (PSR sort gate)” value is listed as “high polyreactivity”.

Consider “QVQLEESGGGLVQAGGSLRLSCAASGRIFNENAMGWYRQAPGKERELVAAITQSGGSTYYADSVKGRFTISRDNAKNTVYLQMNSLKPEDTAVYYCAAGDAYYTEALPFGEYDYWGQGTQVTVSS”, for which the “polyreactivity (PSR sort gate)” value was “low polyreactivity”.

Take “QVQLEESGGGLVQAGGSLRLSCAASGRIFPINTMGWYRQAPGKERELVAAISSNGGRTYYADSVKGRFTISRDNAKNTVYLQMNSLKPEDTAVYYCAADAGYYWPGYYYWGQGTQVTVSS”: the “polyreactivity (PSR sort gate)” value is recorded as “high polyreactivity”.

“QVQLEESGGGLVQAGGSLRLSCAASGRIFSGNAKGWYRQAPGKERELVANITSSSNTNYADSVKGRFTISRDNAKNTVYLQMNSLKPEDTAVYYCAKSAHNGYSFYGYDYWGQGTQVTVSS”: the “polyreactivity (PSR sort gate)” value is recorded as “low polyreactivity”.

In the case of “QVQLEESGGGLVQAGGSLRLSCAASGRIFSYNVMGWYRQAPGKEREFVAAITSNDGSTYYADSVKGRFTISRDNAKNTVYLQMNSLKPEDTAVYYCNADFGPVSLKEPFRDDYWGQGTQVNVSS”, the “polyreactivity (PSR sort gate)” value is “low polyreactivity”.

For “QVQLEESGGGLVQAGGSLRLSCAASGRIFTANAMGWYRQAPGKERELVASISYRSGRTRYADSVKGRFTISRDNAKNTVYLQMNSLKPEDTAVYYCATDRGRRYDYWGQGTQVTVSS”, the “polyreactivity (PSR sort gate)” value is “high polyreactivity”.

As for “QVQLEESGGGLVQAGGSLRLSCAASGRIFVFYDMGWYRQAPGKERELVATITRSGGRTYYADSVKGRFTISRDNAKNTVYLQMNSLKPEDTAVYYCAARRYGKYDYWGQGTQVTVSS”, the “polyreactivity (PSR sort gate)” value is “low polyreactivity”.

“QVQLEESGGGLVQAGGSLRLSCAASGRIFVSNDMGWYRQAPGKERELVAAITWSDDSTHYADSVKGRFTISRDYAKNTVYLQRNSVKPEDTAVYYCNKQRYYSTWRYDYWGQGTQVTVSS”: the “polyreactivity (PSR sort gate)” value is “low polyreactivity”.

For the sequence “QVQLEESGGGLVQAGGSLRLSCAASGRIFWVNVMGWYRQAPGKERELVAAITRGASTYADSVKGRFTISRDNAKNTVYLQLNSLKPEDTAVYYCAVGISDFQYYDYVYWGQGTHVTVSS”, the “polyreactivity (PSR sort gate)” value is on record as “high polyreactivity”.

Consider “QVQLEESGGGLVQAGGSLRLSCAASGRIFYGYAMGWSRQAPGKERELVASISRRGSSTYYADSVKGRFTISRDNAKNTVYLQMNSLKPEDTAVYYCAAGYYPFNYWGQGTQVTVSS”, for which the “polyreactivity (PSR sort gate)” value is “high polyreactivity”.
